These results are taken from patent US20060258842A1 (IQ THERAPEUTICS, published 2006).

Where only a bound is given, the exact number is not on record here.

Experiment [1] addresses T1, GST fusion of protective antigen domains 1 to 3 (Bacillus anthracis, UniProt P13423 30-624).
T1 construct: domain: 1 to 3
The experiment in a line: ELISA, plate coated with GST-PA domain protein, goat anti-human IgG HRP. Background: An ELISA detects its analyte on a solid surface through an enzyme-linked reagent.

For experiment [2], the target named is T2, GST fusion of protective antigen domains 1 to 4 (Bacillus anthracis, UniProt P13423 30-764).
T2 construct: domain: 1 to 4
The experiment is described as above.

Experiment [3] has as its target T3, GST fusion of protective antigen domain 1 (Bacillus anthracis, UniProt P13423 30-287).
T3 construct: domain: 1
The experiment is described as above.

In experiment [4] the target is T4, GST fusion of protective antigen domains 1 to 2 (Bacillus anthracis, UniProt P13423 30-516).
T4 construct: domain: 1 to 2
The experiment is described as above.

In experiment [5] the target is T5, GST fusion of protective antigen domain 4 (Bacillus anthracis, UniProt P13423 625-764).
T5 construct: domain: 4
Described as above.

Experiment [6] deals with T6, GST fusion of protective antigen domains 3 to 4 (Bacillus anthracis, UniProt P13423 517-764).
T6 construct: domain: 3 to 4
The experiment is described as above.

In experiment [7] the target is Bacillus anthracis Protective Antigen (Bacillus anthracis, UniProt P13423 30-764). Description: SPR (BIAcore 3000), PA amine-coupled to CM5 chip, antibody as analyte. (In general: In SPR one partner is held on a chip, and binding of the other changes the refractive index at the surface.)
Sequence of Bacillus anthracis Protective Antigen (P13423 30-764 limits assumed): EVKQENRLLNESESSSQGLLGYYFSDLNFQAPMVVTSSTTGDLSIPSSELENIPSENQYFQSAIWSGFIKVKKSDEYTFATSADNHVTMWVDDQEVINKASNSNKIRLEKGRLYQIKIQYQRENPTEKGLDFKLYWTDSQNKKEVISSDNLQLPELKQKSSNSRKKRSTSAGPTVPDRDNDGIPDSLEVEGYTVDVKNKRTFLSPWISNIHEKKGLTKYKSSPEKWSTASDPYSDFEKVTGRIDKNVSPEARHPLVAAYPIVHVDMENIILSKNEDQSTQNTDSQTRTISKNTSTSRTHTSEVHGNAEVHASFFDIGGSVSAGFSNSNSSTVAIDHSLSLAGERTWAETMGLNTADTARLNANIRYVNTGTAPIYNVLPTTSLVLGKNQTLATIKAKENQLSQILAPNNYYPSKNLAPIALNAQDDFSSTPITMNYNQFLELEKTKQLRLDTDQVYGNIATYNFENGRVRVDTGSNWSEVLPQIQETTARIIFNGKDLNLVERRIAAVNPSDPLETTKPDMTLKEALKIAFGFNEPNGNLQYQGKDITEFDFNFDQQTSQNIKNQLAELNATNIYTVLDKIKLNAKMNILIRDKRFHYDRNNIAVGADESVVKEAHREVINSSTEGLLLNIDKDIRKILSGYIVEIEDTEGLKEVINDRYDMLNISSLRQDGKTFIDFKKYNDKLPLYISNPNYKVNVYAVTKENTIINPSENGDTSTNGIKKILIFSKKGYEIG

T1 sequence (P13423 30-624 limits assumed): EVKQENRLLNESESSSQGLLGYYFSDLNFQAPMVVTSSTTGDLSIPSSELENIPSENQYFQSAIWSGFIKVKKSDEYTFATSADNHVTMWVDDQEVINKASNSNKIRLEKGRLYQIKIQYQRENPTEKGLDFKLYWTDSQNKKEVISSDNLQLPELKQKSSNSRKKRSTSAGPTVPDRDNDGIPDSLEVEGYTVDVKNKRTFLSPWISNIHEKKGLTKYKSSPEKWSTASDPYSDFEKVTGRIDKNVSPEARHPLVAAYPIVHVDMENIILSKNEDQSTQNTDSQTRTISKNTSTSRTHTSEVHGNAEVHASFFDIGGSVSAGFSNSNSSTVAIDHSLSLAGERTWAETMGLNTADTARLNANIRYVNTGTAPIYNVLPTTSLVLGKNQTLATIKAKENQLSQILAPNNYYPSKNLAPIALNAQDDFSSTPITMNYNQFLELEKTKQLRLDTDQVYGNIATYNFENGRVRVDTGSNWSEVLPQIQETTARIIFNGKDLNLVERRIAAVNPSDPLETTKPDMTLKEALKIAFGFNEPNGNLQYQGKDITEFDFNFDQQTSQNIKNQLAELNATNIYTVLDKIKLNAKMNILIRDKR
T5 sequence (P13423 625-764 limits assumed): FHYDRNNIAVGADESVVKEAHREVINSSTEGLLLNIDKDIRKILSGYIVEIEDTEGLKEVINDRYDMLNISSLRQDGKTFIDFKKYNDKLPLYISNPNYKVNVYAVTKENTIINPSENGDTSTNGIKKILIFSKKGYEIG
T2 sequence (P13423 30-764 limits assumed): as the sequence (P13423 30-764 limits assumed) above
T3 sequence (P13423 30-287 limits assumed): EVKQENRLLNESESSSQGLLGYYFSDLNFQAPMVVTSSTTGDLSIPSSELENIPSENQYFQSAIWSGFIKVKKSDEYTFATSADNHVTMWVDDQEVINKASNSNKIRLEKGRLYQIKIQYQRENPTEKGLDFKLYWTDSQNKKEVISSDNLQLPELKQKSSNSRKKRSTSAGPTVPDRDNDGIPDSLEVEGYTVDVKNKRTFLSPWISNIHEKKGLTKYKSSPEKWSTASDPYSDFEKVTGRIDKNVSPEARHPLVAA
T4 sequence (P13423 30-516 limits assumed): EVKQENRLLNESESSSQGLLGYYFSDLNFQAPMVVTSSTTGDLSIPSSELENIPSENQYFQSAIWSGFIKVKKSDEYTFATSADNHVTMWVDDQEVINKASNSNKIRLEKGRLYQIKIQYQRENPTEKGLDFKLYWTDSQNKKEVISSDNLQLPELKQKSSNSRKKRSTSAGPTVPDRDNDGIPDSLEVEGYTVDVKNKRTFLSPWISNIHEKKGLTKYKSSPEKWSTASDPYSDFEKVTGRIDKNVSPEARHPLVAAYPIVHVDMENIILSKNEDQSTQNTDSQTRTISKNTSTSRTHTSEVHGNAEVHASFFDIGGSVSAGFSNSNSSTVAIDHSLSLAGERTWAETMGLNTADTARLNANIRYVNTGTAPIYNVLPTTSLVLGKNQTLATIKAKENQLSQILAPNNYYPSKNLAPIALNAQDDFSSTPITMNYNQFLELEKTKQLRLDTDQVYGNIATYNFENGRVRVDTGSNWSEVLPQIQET
T6 sequence (P13423 517-764 limits assumed): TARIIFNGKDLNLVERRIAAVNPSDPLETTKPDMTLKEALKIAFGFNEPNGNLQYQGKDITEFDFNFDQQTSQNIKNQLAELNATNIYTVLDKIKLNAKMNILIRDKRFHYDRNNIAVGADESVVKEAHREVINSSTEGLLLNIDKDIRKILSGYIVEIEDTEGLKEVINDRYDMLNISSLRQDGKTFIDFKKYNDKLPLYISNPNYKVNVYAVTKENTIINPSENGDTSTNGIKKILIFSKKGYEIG

B1: human monoclonal antibody IQNPA-1 (antibody, V domains shown)
VH: QVQLVQSGAEVKKPGASVKVSCKASGYTFTSNAIQWVRQAPGQRLEWVGWINGGDGNTKYSQKFQGRVTISRDISASTAYMELSSLRSEDTAVYYCARHRLQRGGFDPWGQGTLVTVSS
VL: EIVLTQSPGTLSLSPGERATLSCRASQSVSYSSLAWYQQKPGQAPSLLIYGASSRATGIPDRFSGSGSGPDFTLTISRLEPEDFAVYYCQHYGNSPYTFGQGTKLEIKR
The term Kd denotes the constant that tells how readily two partners part at equilibrium. A high value points to a looser complex. The term koff denotes the rate constant with which the complex falls apart. A low value points to a long-lived complex. The kon is the rate constant with which the complex forms. A higher kon goes with faster complex formation. For B1, the End point titre in experiment [1] was below 100; in experiment [2], 256000; in experiment [3] it was below 100; in experiment [4], below 100; in experiment [5] it was 256000; in experiment [6] it was 256000. The Ka in experiment [7] was found to be 8.31e+09 M⁻¹. The molecule further gave a Kd in experiment [7] of 0.12 nM. Further, the off-rate (koff) in experiment [7] came out at 1.93e-05 s⁻¹. For the same molecule, in experiment [7], the kon came to 160000 M⁻¹ s⁻¹.

B2: human monoclonal antibody IQNPA-2 (antibody, V domains shown)
VH: QVQLVQSGAEVKKPGASVKVSCKASGYTFTSNAIQWVRQAPGQRLEWVGWINGGDGNTKYSQKFQGRVTISRDISASTAYMELSSLRSEDTAVYYCARHRLQRGGFDPWGQGTLVTVSS
VL: EIVLTQSPGTLSLSPGERATLSCRASQSVSYSSLAWYQQKPGQAPSLLIYGASSRATGIPDRFSGSGSGPDFTLTISRLEPEDFAVYYCQHYGNSPYTFGQGTKLEIKR
For B2, the End point titre in experiment [1] is below 100; in experiment [2], 128000; in experiment [3], below 100; in experiment [4], below 100; in experiment [5] it was 128000; in experiment [6] it was 256000. For the same molecule, the Ka in experiment [7] is 9.86e+09 M⁻¹. The molecule also registered a Kd in experiment [7] of 0.101 nM. Also, the koff in experiment [7] was 1.81e-05 s⁻¹. In experiment [7], this molecule returned a kon of 178000 M⁻¹ s⁻¹.
